The target of assay [1] is Pmr (plasmid pCAR1 (isolated originally from P. resinovorans CA10)). As to the kind of experiment: SEC; 1 ml of purified protein at 140 uM on HiLoad 16/60 Superdex 200 prep grade in buffer B (20 mM Tris-HCl pH 7.5, 4°C, 0.5 M NaCl, 10% glycerol, 0.5 M imidazole); fractions checked by Tricine-SDS-PAGE and anti-His Western blot.
For assay [2], the target named is TurA (P. putida KT2440). As to the kind of experiment: SPR; Biacore 2000, biotinylated Pmr, TurA or TurB (about 500 RU) immobilised on streptavidin chip SA, Pmr as analyte at lower concentrations; 4°C, 20 mM Tris-HCl pH 7.5, 0.5 M NaCl, 5% glycerol, 475 mM imidazole, 30 ul/min; Req divided by the immobilised amount.
Assay [3] deals with Pmr (plasmid pCAR1 (isolated originally from P. resinovorans CA10)). The description is as above.
The target of assay [4] is Pmr-R8A (plasmid pCAR1 (isolated originally from P. resinovorans CA10)). As to the kind of experiment: SEC; 1 ml of purified protein at 140 uM on HiLoad 16/60 Superdex 200 prep grade in buffer B (20 mM Tris-HCl pH 7.5, 4°C, 0.5 M NaCl, 10% glycerol, 0.5 M imidazole); fractions checked by Tricine-SDS-PAGE and anti-His Western blot.

Take Pmr (natural protein): the stoichiometry N in assay [1] is 35 -mer. Besides, the binding amount of APmr per ligand homodimer, relative to LTurB-APmr in assay [2] and in assay [3] was 2 fold each time.
On to Pmr-R8A (natural protein), for which the stoichiometry N in assay [4] was 6 -mer.
